One experiment deals with T1, HLA-A*24.
T1 construct: Monomers captured on streptavidin plates; also called peptide-receptive MHC molecules; MHC complexes
The experiment in a line: UV peptide-exchange ELISA (anti-b2m); yield grade + = >10%. The source says: (§1) Candidate peptides for T cell based therapies according to the present invention were further tested for their MHC binding capacity (affinity). The individual peptide-MHC complexes were produced by UV-ligand exchange, where a UV-sensitive peptide is cleaved upon UV-irradiation, and exchanged with the peptide of interest as analyzed. Only peptide candidates that can effectively bind and stabilize the peptide-receptive MHC molecules prevent dissociation of the MHC complexes. To determine the yield of the exchange reaction, an ELISA was performed based on the detection of the light chain (p2m) of stabilized MHC complexes. The assay was performed as generally described in Rodenko et al. (Rodenko et al., 2006)
(§2) 96 well MAXISorp plates (NUNC) were coated over night with 2 ug/ml streptavidin in PBS at room temperature, washed 4× and blocked for 1 h at 37° C. in 2% BSA containing blocking buffer. Refolded HLA-A*02:01/MLA-001 monomers served as standards, covering the range of 15-500 ng/ml. Peptide-MHC monomers of the UV-exchange reaction were diluted 100-fold in blocking buffer. Samples were incubated for 1 h at 37° C., washed four times, incubated with 2 ug/ml HRP conjugated anti-β2m for 1h at 37° C., washed again and detected with TMB solution that is stopped with […]. Absorption was measured at 450 nm. Candidate peptides that show a high exchange yield (preferably higher than 50%, most preferred higher than 75%) are generally preferred for a generation and production of antibodies or fragments thereof, and/or T cell receptors or fragments thereof, as they show sufficient avidity to the MHC molecules and prevent dissociation of the MHC complexes.
For orientation: In an ELISA, binding on a coated surface is turned into a signal by an enzyme label.
Turning to MMALWSLLHL (also called MMALWSLLHL) [ZAC-001], the peptide exchange yield fell in the range of 10 to 20%.

Regarding VQADAKLLF (also called VQADAKLLF) [C20-002], the peptide exchange yield is 10 to 20%.

Take KQHAWLPLTI (also called KQHAWLPLTI) [TCL1A-003]: the peptide exchange yield was in the range of 10 to 20%.

In the case of QHAWLPLTI (also called QHAWLPLTI) [TCL1A-004], the peptide exchange yield was 10 to 20%.

As to VYFVQYKIM (also called VYFVQYKIM) [IL22RA2-001], the peptide exchange yield was 10 to 20%.

Take IVTFMNKTLGTF (also called IVTFMNKTLGTF) [ADAM29-001]: the peptide exchange yield was 10 to 20%.

With KQVIGIHTF (also called KQVIGIHTF) [SFMBT1-002], the peptide exchange yield lay within 10 to 20%.

In the case of VTPKMLISF (also called VTPKMLISF) [OR5H8P-001], the peptide exchange yield is 10 to 20%.

Take SHSDHEFLF (also called SHSDHEFLF) [ARSH-001]: the peptide exchange yield lay within 10 to 20%.

Regarding ATATLHLIF (also called ATATLHLIF) [PCD-007], the peptide exchange yield fell in the range of 10 to 20%.

Consider IYPHGVTFSP (also called IYPHGVTFSP) [F5-004], for which the peptide exchange yield fell in the range of 10 to 20%.

In the case of KVVSGFYYI (also called KVVSGFYYI) [CCR8-003], the peptide exchange yield lay in the range of 10 to 20%.

As for QFYSTLPNTI (also called QFYSTLPNTI) [ROS-009], the peptide exchange yield was 10 to 20%.

Take SYIVDGKII (also called SYIVDGKII) [PSG9-001]: the peptide exchange yield was in the range of 10 to 20%.

Take FPPTPPLF (also called FPPTPPLF) [BCL11A-002]: the peptide exchange yield is 10 to 20%.

Regarding TYFFVANKY (also called TYFFVANKY) [MMP1-011], the peptide exchange yield lay within 10 to 20%.

As for MFQEMLQRL (also called MFQEMLQRL) [TRIML2-001], the peptide exchange yield is 10 to 20%.

ISFSDTVNVW (also called ISFSDTVNVW) [ITIH6-001]: the peptide exchange yield was 10 to 20%.

Consider RRLWAYVTI (also called RRLWAYVTI) [ITIH6-002], for which the peptide exchange yield lay in the range of 10 to 20%.

Consider KDQPQVPCVF (also called KDQPQVPCVF) [NAT1-001], for which the peptide exchange yield lay within 10 to 20%.

As for KLRALSILF (also called KLRALSILF) [PTP-039], the peptide exchange yield lay in the range of 10 to 20%.

With GTGKLFWVF (also called GTGKLFWVF) [BTL-003], the peptide exchange yield lay within 10 to 20%.

Consider LQIPVSPSF (also called LQIPVSPSF) [MAGEC1-004], for which the peptide exchange yield was in the range of 10 to 20%.

Regarding KYKNPYGF (also called KYKNPYGF) [MMP20-001], the peptide exchange yield is 10 to 20%.

For YQVAKGMEF (also called YQVAKGMEF) [FLT3-014], the peptide exchange yield was in the range of 10 to 20%.

RVHANPLLI (also called RVHANPLLI) [APOB-081]: the peptide exchange yield fell in the range of 10 to 20%.

In the case of LIFALALAAF (also called LIFALALAAF) [GAST-001], the peptide exchange yield lay within 10 to 20%.

The next experiment addresses T1, HLA-A*24. Put plainly: UV peptide-exchange ELISA (anti-b2m); yield grade +++ = >50.
Description: as §1, §2
On to RLGEFVLLF (also called RLGEFVLLF) [TGM6-001], for which the peptide exchange yield lay in the range of 50 to 75%.

In turn, SYQEAIQQL (also called SYQEAIQQL) [NEFH-003] showed a peptide exchange yield of 50 to 75%.

RIFTARLYF (also called RIFTARLYF) [AICD-001] registered a peptide exchange yield of 50 to 75%.

NAFEAPLTF (also called NAFEAPLTF) [BRCA2-004] showed a peptide exchange yield of 50 to 75%.

On to IYPDSIQEL (also called IYPDSIQEL) [LOC-019], for which the peptide exchange yield is 50 to 75%.

KDLMKAYLF (also called KDLMKAYLF) [TXNDC16-006]: the peptide exchange yield lay in the range of 50 to 75%.

TDWSPPPVEF (also called TDWSPPPVEF) [FAM178B-001]: the peptide exchange yield was 50 to 75%.

For the molecule VGGNVTSNF (also called VGGNVTSNF) [CT45-004], the peptide exchange yield lay within 50 to 75%.

Take VGGNVTSSF (also called VGGNVTSSF) [CT45-005]: the peptide exchange yield lay within 50 to 75%.

In turn, SYVLQIVAI (also called SYVLQIVAI) [PTP-041] showed a peptide exchange yield of 50 to 75%.

The molecule SLWREVVTF (also called SLWREVVTF) [CEP250-004] yielded a peptide exchange yield of 50 to 75%.

Turning to VYEHNHVSL (also called VYEHNHVSL) [BTBD16-006], the peptide exchange yield was 50 to 75%.

YFDENIQKF (also called YFDENIQKF) [HEPHL-006] came in with a peptide exchange yield of 50 to 75%.

In the case of KVWSDVTPLTF (also called KVWSDVTPLTF) [MMP11-023], the peptide exchange yield is 50 to 75%.

LFQRVSSVSF (also called LFQRVSSVSF) [HMCN1-010]: the peptide exchange yield was 50 to 75%.

Turning to QYPEFSIEL (also called QYPEFSIEL) [TGM4-001], the peptide exchange yield fell in the range of 50 to 75%.

Take FYIVTRPLAF (also called FYIVTRPLAF) [SUCN-002]: the peptide exchange yield fell in the range of 50 to 75%.

The record behind these values is patent publication US20190352359A1 (IMMATICS BIOTECHNOLOGIES, published 2019).
